Assay results reported in the supplement of paper PMC9732359.
± gives the uncertainty stated by the source.

Assay: protein stability index of a GFP-peptide fusion (yeast GPS) (PSI 1-4); higher = more stable; sorted into four equal gates, so the index is relative within each strain
Outline: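 Tiled 17-residue yeast protein peptides were fused downstream of GFP in a plasmid that also expresses Cherry, and the pooled library was carried in yeast. Mid-log cultures in leucine-free medium were sorted into four equal gates by GFP/Cherry fluorescence ratio, and plasmids from each gate were PCR-amplified and Illumina-sequenced, with reads assigned to strains by barcodes. The protein stability index for each peptide was each gate's read frequency times its gate number, summed.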

| Sequence | protein stability index (doa10∆) | protein stability index (pdr5∆) | protein stability index (san1∆) | protein stability index (ubr1∆) |
| --- | --- | --- | --- | --- |
| DHQHILRKLKKMNNKPE [RPC53] | 1.87 ± 0.053 | 1.7 ± 0.06 | 1.78 ± 0.1 | 1.51 ± 0.044 |
| DIDVTIVSKEYEKNFEA [ESC2] | 3.27 ± 0.15 | 3.06 ± 0.14 | 3.24 ± 0.088 | 3.42 ± 0.16 |
| DIEVPDVNALKFNNTQR [SNF12] | 2.97 ± 0.1 | 3.29 ± 0.06 | 2.98 ± 0.047 | 3.09 ± 0.051 |
| DIFAVNLEESSKLDIYT [RET1] | 2.98 ± 0.097 | 2.78 ± 0.081 | 2.72 ± 0.087 | 3 ± 0.08 |
| DIIQGNPLMYSGGNNTA [PCI8] | 3.17 ± 0.082 | 3.13 ± 0.08 | 3.32 ± 0.047 | 3.24 ± 0.072 |
| DIKDFADKVYTKENLEV [QCR2] | 3.34 ± 0.092 | 3.42 ± 0.11 | 2.69 ± 0.12 | 3.33 ± 0.053 |
| DIPGVRFKVVKVSGVSL [RPS23A] | 1.62 ± 0.084 | 1.11 ± 0.1 | 1.25 ± 0.29 | 1.06 ± 0.079 |
| DIVSIDIEEPQLDLLDD [MTW1] | 2.66 ± 0.098 | 3.17 ± 0.097 | 3.25 ± 0.05 | 3.16 ± 0.048 |
| DIWRVAGKFELLDRILP [SNF2] | 2.37 ± 0.086 | 2.65 ± 0.08 | 2.02 ± 0.14 | 2.54 ± 0.1 |
| DIYMHDVNSASKSESDS [RRP4] | 3.59 ± 0.12 | 3.48 ± 0.1 | 3.15 ± 0.098 | 3.22 ± 0.066 |
| DKARRLGYKAKQGFVIY [RPL15A] | 3.24 ± 0.16 | 3.33 ± 0.23 | 2.91 ± 0.14 | 3.28 ± 0.25 |
| DKETQLKKRAVSGVELR [POP7] | 2.7 ± 0.21 | 2.57 ± 0.26 | 2.36 ± 0.18 | 2.27 ± 0.25 |
| DKILQLNDRFQTLSSHL [PGD1] | 2.46 ± 0.048 | 2.66 ± 0.042 | 2.55 ± 0.051 | 2.46 ± 0.058 |
| DKKLLRRLLNLYNDNNK [SWI1] | 2.48 ± 0.088 | 2.62 ± 0.072 | 2.57 ± 0.085 | 2.6 ± 0.068 |
| DKKQQTIDEQSQISPEK [RPN1] | 3.29 ± 0.11 | 3.46 ± 0.11 | 3.4 ± 0.063 | 3.26 ± 0.046 |
| DKKYKGLTTVWLLSALG [REC8] | 2.24 ± 0.054 | 2.38 ± 0.063 | 2.04 ± 0.084 | 2.29 ± 0.039 |
| DKLEKVTHDCYRVTLES [RPC34] | 3.37 ± 0.16 | 3.3 ± 0.06 | 3.25 ± 0.075 | 3.12 ± 0.085 |
| DKLINDVTAIQTWSYLS [ECM29] | 1.77 ± 0.04 | 1.78 ± 0.04 | 1.74 ± 0.087 | 1.83 ± 0.044 |
| DKLLDFIRYDVKTPKKT [CSN12] | 2.73 ± 0.046 | 2.64 ± 0.045 | 2.2 ± 0.052 | 2.99 ± 0.053 |
| DKQGWTPLFHALAEGHG [NAS6] | 2.75 ± 0.2 | 2.34 ± 0.098 | 2.99 ± 0.13 | 3.01 ± 0.17 |
| DKSTKTAEAPTLSFNFS [YOR098C/NUP1] | 3.27 ± 0.076 | 3.29 ± 0.083 | 3.24 ± 0.051 | 3.23 ± 0.084 |
| DKTAVKLDTEVKNTNAN [SWP82] | 2.5 ± 0.077 | 2.83 ± 0.076 | 2.88 ± 0.099 | 1.96 ± 0.056 |

| Sequence | protein stability index (doa10∆) | protein stability index (pdr5∆) | protein stability index (san1∆) | protein stability index (ubr1∆) |
| --- | --- | --- | --- | --- |
| DLAMANSLRRVMIAEIP [RPB3] | 1.23 ± 0.061 | 1.36 ± 0.051 | 1.09 ± 0.18 | 1.44 ± 0.068 |
| DLCSLKPYVDRFAFSVI [DIS3] | 1.93 ± 0.05 | 1.87 ± 0.052 | 1.93 ± 0.065 | 2.27 ± 0.04 |
| DLEHKEDCVEEFFHLQH [QCR6] | 2.77 ± 0.1 | 2.75 ± 0.11 | 2.69 ± 0.14 | 3.37 ± 0.1 |
| DLENKFNRLKKQAHEKL [YIL149C/MLP2] | 2.75 ± 0.11 | 2.71 ± 0.067 | 2.3 ± 0.17 | 2.81 ± 0.063 |
| DLETSLSQSSSYLETLT [MED2] | 2.94 ± 0.075 | 3.12 ± 0.11 | 2.7 ± 0.077 | 2.96 ± 0.099 |
| DLFGDSNKSNSTNESNK [SSN2] | 3.2 ± 0.078 | 3.3 ± 0.08 | 3.07 ± 0.064 | 3.29 ± 0.058 |
| DLFSNNNYNSRIQLMND [MED1] | 3 ± 0.2 | 2.9 ± 0.25 | 2.93 ± 0.11 | 3.06 ± 0.13 |
| DLGITEKNDQNNDDDDN [MCD1] |  | 2.97 ± 0.14 |  | 3.41 ± 0.24 |
| DLIKFSAETLSELIRTT [FAS1] | 2.1 ± 0.076 | 2.29 ± 0.059 | 2.1 ± 0.081 | 2.12 ± 0.073 |
| DLKSLNVRDDMKPSDNI [SSN2] | 2.94 ± 0.22 | 2.59 ± 0.18 | 2.62 ± 0.16 | 2.57 ± 0.097 |
| DLLDMIQFGAKNMFEKK [ISW2] | 3.25 ± 0.14 | 3.29 ± 0.24 | 3 ± 0.16 |  |
| DLLILTRSIKEKWLLNQ [SRB6] | 1.12 ± 0.1 | 1.35 ± 0.19 | 1.32 ± 0.2 | 1.24 ± 0.17 |
| DLLNAASIESADILCPL [IRR1] | 3.05 ± 0.2 | 2.24 ± 0.13 | 2.92 ± 0.12 | 2.79 ± 0.058 |
| DLQLLYVESDEDDTQIV [IRR1] | 3.32 ± 0.17 | 3.21 ± 0.14 | 3.07 ± 0.084 | 3.16 ± 0.12 |
| DLRIRIKLDIVVGQNQL [SNF5] | 1.38 ± 0.088 | 1.38 ± 0.086 | 1.67 ± 0.1 | 1.75 ± 0.071 |
| DLSLLGYCDDIAAMVAQ [SIR2] | 2.56 ± 0.06 | 2.08 ± 0.043 | 2.82 ± 0.052 | 2.24 ± 0.041 |
| DLYEQIGIDPPRGVLLY [RPT3] | 2.6 ± 0.073 | 3.02 ± 0.1 | 2.8 ± 0.055 | 2.9 ± 0.08 |
| DMDGVDFNQAFEGTDDN [BRN1] | 2.97 ± 0.094 | 3.04 ± 0.091 | 3.35 ± 0.094 | 3.17 ± 0.072 |
| DNDFIINDFKKIGRENE [POP5] | 3.33 ± 0.071 | 3.38 ± 0.072 | 3.3 ± 0.057 | 3.35 ± 0.047 |
| DNDRFNVVGKLISIISS [YML103C/NUP188] | 1.3 ± 0.064 | 1.24 ± 0.073 | 1.21 ± 0.081 | 1.2 ± 0.047 |
| DNEEWMNDVINTEEVNR [LIN1] | 3.2 ± 0.071 | 3.46 ± 0.079 | 3.23 ± 0.044 | 3.39 ± 0.085 |
| DNIDYAPMRLATAALEI [YJL039C/NUP192] | 2.35 ± 0.058 | 2.44 ± 0.041 | 2.29 ± 0.077 | 2.31 ± 0.042 |
